Test results from article PMC3068998.

Settings: glycan lost

| Protein | other: toxin entry into neurons |
| --- | --- |
| SV2A: N498Q (protein) parent chain: MEEGFRDRAAFIRGAKDIAKEVKKHAAKKVVKGLDRVQDEYSRRSYSRFEEEEDDDDFPAPADGYYRGEGAQDEEEGGASSDATEGHDEDDEIYEGEYQGIPRAESGGKGERMADGAPLAGVRGGLSDGEGPPGGRGEAQRRKDREELAQQYETILRECGHGRFQWTLYFVLGLALMADGVEVFVVGFVLPSAEKDMCLSDSNKGMLGLIVYLGMMVGAFLWGGLADRLGRRQCLLISLSVNSVFAFFSSFVQGYGTFLFCRLLSGVGIGGSIPIVFSYFSEFLAQEKRGEHLSWLCMFWMIGGVYAAAMAWAIIPHYGWSFQMGSAYQFHSWRVFVLVCAFPSVFAIGALTTQPESPRFFLENGKHDEAWMVLKQVHDTNMRAKGHPERVFSVTHIKTIHQEDELIEIQSDTGTWYQRWGVRALSLGGQVWGNFLSCFSPEYRRITLMMMGVWFTMSFSYYGLTVWFPDMIRHLQAVDYAARTKVFPGERVEHVTFNFTLENQIHRGGQYFNDKFIGLRLKSVSFEDSLFEECYFEDVTSSNTFFRNCTFINTVFYNTDLFEYKFVNSRLVNSTFLHNKEGCPLDVTGTGEGAYMVYFVSFLGTLAVLPGNIVSALLMDKIGRLRMLAGSSVLSCVSCFFLSFGNSESAMIALLCLFGGVSIASWNALDVLTVELYPSDKRTTAFGFLNALCKLAAVLGISIFTSFVGITKAAPILFASAALALGSSLALKLPETRGQVLQ | no change |
| SV2A: N548Q (protein) parent chain: MEEGFRDRAAFIRGAKDIAKEVKKHAAKKVVKGLDRVQDEYSRRSYSRFEEEEDDDDFPAPADGYYRGEGAQDEEEGGASSDATEGHDEDDEIYEGEYQGIPRAESGGKGERMADGAPLAGVRGGLSDGEGPPGGRGEAQRRKDREELAQQYETILRECGHGRFQWTLYFVLGLALMADGVEVFVVGFVLPSAEKDMCLSDSNKGMLGLIVYLGMMVGAFLWGGLADRLGRRQCLLISLSVNSVFAFFSSFVQGYGTFLFCRLLSGVGIGGSIPIVFSYFSEFLAQEKRGEHLSWLCMFWMIGGVYAAAMAWAIIPHYGWSFQMGSAYQFHSWRVFVLVCAFPSVFAIGALTTQPESPRFFLENGKHDEAWMVLKQVHDTNMRAKGHPERVFSVTHIKTIHQEDELIEIQSDTGTWYQRWGVRALSLGGQVWGNFLSCFSPEYRRITLMMMGVWFTMSFSYYGLTVWFPDMIRHLQAVDYAARTKVFPGERVEHVTFNFTLENQIHRGGQYFNDKFIGLRLKSVSFEDSLFEECYFEDVTSSNTFFRNCTFINTVFYNTDLFEYKFVNSRLVNSTFLHNKEGCPLDVTGTGEGAYMVYFVSFLGTLAVLPGNIVSALLMDKIGRLRMLAGSSVLSCVSCFFLSFGNSESAMIALLCLFGGVSIASWNALDVLTVELYPSDKRTTAFGFLNALCKLAAVLGISIFTSFVGITKAAPILFASAALALGSSLALKLPETRGQVLQ | no change |
